From patent US20260176374A1 (published 2026)

What was measured:
Assay in all cases: BLI
14949 = target: 14949
19429 = target: 19429
19113 = target: 19113

Kd 14949: 2 nM | Kd 19429: 0.8 nM | Kd 19113: 2 nM
B1: hEPOR (receptor)
chain: APPPNLPDPKFESKAALLAARGPEELLCFTERLEDLVCFWEEAASAGVGPGNYSFSYQLEDEPWKLCRLHQAPTARGAVRFWCSLPTADTSSFVPLELRVTAASGAPRYHRVIHINEVVLLDAPVGLVARLADESGHVVLRWLPPPETPMTSHIRYEVDVSAGNGAGSVQRVEILEGRTECVLSNLRGRTRYTFAVRARMAEPSFGGFWSAWSEPVSLLTPSDLDP
